B1: GS3314 (nucleic acid)
sense: CGAGGUUCAUGGUAGUUCCCUAUCUAAGGAUGAUCUUCGAGAUUUGAGAAAUAUUGACCUCUCAGACUUUUCCUACCGACAGCCCUAUAUGCAAGAAAGAAGAGACGCCGUUGGCCAAAGAGGAAACAUAAGUAAUAGAGGAAGAGGAAGGGUGAGAGGUAUAGGAAGGGAUCCAAACGUGGACCUUCCCCAACCCUUAAGUAGUCAACCUUUAAGGAGGGACGAACAAGCAUUUCAAAGGCAACUAGCAGUCCAAUCCUCUCAGUCUGUCACGACAAGGAACUCCGUCCAUCAAAAUACAACACCAGCAUCGCAAAUAUCAAAUAAUACUCCAAAAUCACAGUCUCAAGUAACAAGAUCCCCCCAGACUUCUAAUAACCUUGAAAGUGCAAACAUU
antisense: AAUGUUUGCACUUUCAAGGUUAUUAGAAGUCUGGGGGGAUCUUGUUACUUGAGACUGUGAUUUUGGAGUAUUAUUUGAUAUUUGCGAUGCUGGUGUUGUAUUUUGAUGGACGGAGUUCCUUGUCGUGACAGACUGAGAGGAUUGGACUGCUAGUUGCCUUUGAAAUGCUUGUUCGUCCCUCCUUAAAGGUUGACUACUUAAGGGUUGGGGAAGGUCCACGUUUGGAUCCCUUCCUAUACCUCUCACCCUUCCUCUUCCUCUAUUACUUAUGUUUCCUCUUUGGCCAACGGCGUCUCUUCUUUCUUGCAUAUAGGGCUGUCGGUAGGAAAAGUCUGAGAGGUCAAUAUUUCUCAAAUCUCGAAGAUCAUCCUUAGAUAGGGAACUACCAUGAACCUCG
B2: GS3313 (nucleic acid)
sense: AUCGUGAAUGGAGCUGUAACUGAAACAACAGCUUUACUAAACGAAAAAUGGGACAAAAUAUUUUACACUGGCAAUACCCAAGUAGGUGUAAUAAUUGCCAAAAAAGCUGCAGAAACUCUUACACCAGUUUGCUUAGAGCUCGGGGGAAUCAAUCCGGCAAUCAUUACGAAAAAUGCAGACCCAUACCUUGCUGCUCGUCGGCUAUUAUGGGGUAAACUAAUGAAUGCUGGACAAGUUUGCAUCAGUCAAAAUUAUAUUCUUGUCGAACAAGAAGUUUUACCAAUUUUCGUAGAGCAUUUGAAAAACACUCUAAAUGAAUUCUAUCCAAAUGGUAUAAGAAAUAGUCCAGAUUUUGGAAGGAUAGUCAAUCAGCGUCAUUUUUCUAGAAUUAAAAAAAU
antisense: AUUUUUUUAAUUCUAGAAAAAUGACGCUGAUUGACUAUCCUUCCAAAAUCUGGACUAUUUCUUAUACCAUUUGGAUAGAAUUCAUUUAGAGUGUUUUUCAAAUGCUCUACGAAAAUUGGUAAAACUUCUUGUUCGACAAGAAUAUAAUUUUGACUGAUGCAAACUUGUCCAGCAUUCAUUAGUUUACCCCAUAAUAGCCGACGAGCAGCAAGGUAUGGGUCUGCAUUUUUCGUAAUGAUUGCCGGAUUGAUUCCCCCGAGCUCUAAGCAAACUGGUGUAAGAGUUUCUGCAGCUUUUUUGGCAAUUAUUACACCUACUUGGGUAUUGCCAGUGUAAAAUAUUUUGUCCCAUUUUUCGUUUAGUAAAGCUGUUGUUUCAGUUACAGCUCCAUUCACGAU
B3: GS3319 (nucleic acid)
sense: GUGUUGAGACCUAAGAGCCUAUGAGUGAGUCACAUUACAACAGAAAGCCUCAAGUCUAAAGUCAUAACCUAUUAAAAUUCGAAAGCACAAAAACAUCCAUUAGGAACUGACUAAGUACAAGAGCUACUCCAUAAAAAUCAGUCGCAAUACAUGUUUUUGCAAAGCAGAUCAACCUGGUUAAGACGAGAAAUAACUUAGUAUUCAACGUAGCUAAAUCUCCAGGGUGUUAGUGUAGUAUAUUGACGUUUCCGAAAUAAUUAAAACCAGCAUCUUAGUUUGGUGUUAUUUGAUAUAUAUGAUAAGAUUCGUUUAGGAUUUAUUGGAAUUUAUUUGGCUGGUAUCUAAUGUAGAUUUGAUUGAUACCGUAUUAUCAAAUCAUUUUAU
antisense: AUAAAAUGAUUUGAUAAUACGGUAUCAAUCAAAUCUACAUUAGAUACCAGCCAAAUAAAUUCCAAUAAAUCCUAAACGAAUCUUAUCAUAUAUAUCAAAUAACACCAAACUAAGAUGCUGGUUUUAAUUAUUUCGGAAACGUCAAUAUACUACACUAACACCCUGGAGAUUUAGCUACGUUGAAUACUAAGUUAUUUCUCGUCUUAACCAGGUUGAUCUGCUUUGCAAAAACAUGUAUUGCGACUGAUUUUUAUGGAGUAGCUCUUGUACUUAGUCAGUUCCUAAUGGAUGUUUUUGUGCUUUCGAAUUUUAAUAGGUUAUGACUUUAGACUUGAGGCUUUCUGUUGUAAUGUGACUCACUCAUAGGCUCUUAGGUCUCAACAC
B4: ES53: dsRNA trigger SEQ ID NO 114; gene target Hypotethicai effector (nucleic acid)
DNA: ACGATTATCGCCAATTGGGGTGATACTGTTGTAGTACATGTTACTAATTCATTAATGAATAATGGAACGAGCATTCATTTTCATGGACTCCGGCAATTCGAAACAAACCAAATGGATGGTCCAACATCAATAACACAGTGTCCCATAGCTCCCGGTGATAGTTTTACATATAGATGGGTTGCCTCTCAGTACGGAAGTTCATGGTACCATGCTCATTTCGCCGTAC
B5: GS3320 (nucleic acid)
sense: UUAUCAUGCUGCCAUGGUUCAUAAGAAAAAAAUUUACUAAGAUUAGUAGGGAUGCAUAGACCUAAUGACACGCCCAUAAAAGUUGUAUGGCUAUCCCAACCAUGUUCAGAAAGUAUCUCGAGACCAUGAAUGCUUCUAGAAAUAAGGCCAAGUACGAAAAAUGCGGUUCCUCUCAUGCUCAUUAUUUCAUGCGAUUCUGCAAUUUUAAUUAUGUUCUGCACGACAUCUGAUUUUUCAAGAAAAGGAGCACCCAAUUCCAUAGAUCCAACGUUACCUACAGCCCAUAGGCAUCCUUUAACCUUAAGAAUAAUCUCUAAAUCAUCAUAAUGCAUUCCAUAUUCACGAAUGGUUGAGGCAAAUUCAUCAAAAUGACCUUUAUCAUGCAAGAGCUU
antisense: AAGCUCUUGCAUGAUAAAGGUCAUUUUGAUGAAUUUGCCUCAACCAUUCGUGAAUAUGGAAUGCAUUAUGAUGAUUUAGAGAUUAUUCUUAAGGUUAAAGGAUGCCUAUGGGCUGUAGGUAACGUUGGAUCUAUGGAAUUGGGUGCUCCUUUUCUUGAAAAAUCAGAUGUCGUGCAGAACAUAAUUAAAAUUGCAGAAUCGCAUGAAAUAAUGAGCAUGAGAGGAACCGCAUUUUUCGUACUUGGCCUUAUUUCUAGAAGCAUUCAUGGUCUCGAGAUACUUUCUGAACAUGGUUGGGAUAGCCAUACAACUUUUAUGGGCGUGUCAUUAGGUCUAUGCAUCCCUACUAAUCUUAGUAAAUUUUUUUCUUAUGAACCAUGGCAGCAUGAUAA
B6: GS3312 (nucleic acid)
sense: CUGCUGGUAGUGACAAGGGCACAGAACACGUCUGGGAAAUAAGCCAGAGCGUGGGCAUGAUAAUUGGUGGAAUUUUAGAAAAUUUGCUCAUGCUUAUGGGAAAAGUUCCCAGCUUAACGAGGAGGCAAGUACGAUAUAGCUGUAUGACAAGAUACUAUGACUGUAGUAAAGCUAAGAGGCUACUUGGAUAUACACCAGAAGUCCACCUGUGGGAAGGCAUAGAGAGGUCAGUUGCUUGGUUCAAAAAUCAGAGUUAAUUAUCGAAGCCCGAAUGAAUACUUCAUAUUACUAAACUUGCCCGAAUUAAAAUUCUGGCUAGCUUAGUUAUCAAAUAAAAAUUGAUAGUUAAGUUGAUCUUUCAUUGAUGAAUAUAUAAGUACUUAACCUUAUCAUUCAAU
antisense: AUUGAAUGAUAAGGUUAAGUACUUAUAUAUUCAUCAAUGAAAGAUCAACUUAACUAUCAAUUUUUAUUUGAUAACUAAGCUAGCCAGAAUUUUAAUUCGGGCAAGUUUAGUAAUAUGAAGUAUUCAUUCGGGCUUCGAUAAUUAACUCUGAUUUUUGAACCAAGCAACUGACCUCUCUAUGCCUUCCCACAGGUGGACUUCUGGUGUAUAUCCAAGUAGCCUCUUAGCUUUACUACAGUCAUAGUAUCUUGUCAUACAGCUAUAUCGUACUUGCCUCCUCGUUAAGCUGGGAACUUUUCCCAUAAGCAUGAGCAAAUUUUCUAAAAUUCCACCAAUUAUCAUGCCCACGCUCUGGCUUAUUUCCCAGACGUGUUCUGUGCCCUUGUCACUACCAGCAG
B7: GS3317 (nucleic acid)
sense: CAGGACUGUCCAGUUAGAUCUAGAGUCAAAAUGCCCAAAUCAUCCAAAAAGUAAGGUGGUAUAAGAAGAAGCUUAACGUUUAUAGACGUAACUGAAUCUCGGAAGAACAGCUCUUUCCUAGCAAGCAAGUAGUUGUGAAAUUACCUGCUCCUAGGUUUAUUUUUUAUUUUCAGGUGGAAUAUUGAUGAUCGCUGGAUCCACAAAAUGUAAAUUAAAAAAAUAAAAACAAAUAUCUGGUGACUGAAGGAUUUCAUGUAGUGACUAAACGUCAGUACAAGUCACAGAGUACUGAUCAAAACUACAGAAUUAUAUCUCGACGUCUUCCCUGAAGAUGAUAAAAGAUUCACCCACAACAUAAAGCUUUCAUUAUAUAU
antisense: AUAUAUAAUGAAAGCUUUAUGUUGUGGGUGAAUCUUUUAUCAUCUUCAGGGAAGACGUCGAGAUAUAAUUCUGUAGUUUUGAUCAGUACUCUGUGACUUGUACUGACGUUUAGUCACUACAUGAAAUCCUUCAGUCACCAGAUAUUUGUUUUUAUUUUUUUAAUUUACAUUUUGUGGAUCCAGCGAUCAUCAAUAUUCCACCUGAAAAUAAAAAAUAAACCUAGGAGCAGGUAAUUUCACAACUACUUGCUUGCUAGGAAAGAGCUGUUCUUCCGAGAUUCAGUUACGUCUAUAAACGUUAAGCUUCUUCUUAUACCACCUUACUUUUUGGAUGAUUUGGGCAUUUUGACUCUAGAUCUAACUGGACAGUCCUG

These molecules were tested on E. necator (assay: Leaf disc assay, dry inoculum (settling tower), decrease in disease severity / hyphal growth (Example 2)). Conditions: decrease in disease severity (hyphal growth) relative to untreated control; time point 1 (untreated control hyphal growth ≥50%); value ± SE.

In order of falling “% decrease =/− SE TP1” value:
1. B3  23 ± 8%
2. B7  21 ± 9%
3. B5  20 ± 8%
4. B1  17 ± 8%
5. B6  13 ± 4%
6. B2  9 ± 9%
7. B4  4 ± 1%

Same assay, conditions: decrease in disease severity (hyphal growth) relative to untreated control; time point 2; value ± SE

In order of rising “% decrease =/− SE TP2” value:
1. B5  5 ± 8%
2. B1  12 ± 8%
3. B2  13 ± 9%
4. B7  17 ± 9%
5. B6  19 ± 6%
6. B3  25 ± 7%
